Here are results for four molecules from US20120225088, “COMPOSITIONS AND METHODS FOR TREATING CANCER AND OTHER DISEASES” (published 2012).

Common to all, as to conditions: tags: endogenous on Ramos Burkitt's lymphoma cells; label: 5' FITC or Cy3; stem-loop hairpin
In data set [1] the target is T1, membrane-bound IgM (mIgM, immunoglobulin heavy mu chain of B-cell receptor) (Homo sapiens, UniProt P01871 P01871:1-474). Put plainly: flow; Bmax/2 (Kd') on Ramos cells, 4 C, 5 mM MgCl2. The protocol:
(§1) All the in vitro experiments were done using a binding buffer composed of RPMI 1640 and 4.5 g/L glucose (Sigma-Aldrich) and 5 mM MgCl₂ for monomers, 20 mM MgCl₂ for multimers (Sigma-Aldrich), 100 mg/L tRNA (Sigma-Aldrich), 100 mg/L single stranded DNA (Sigma-Aldrich), 100 mg/L BSA (Sigma-Aldrich) and binding was analyzed for binding using flow cytometry in binding buffer (Acurri C6) using binding buffer. We used 20 mM Mg⁺² for optimal for the folding of the aptamer in vitro and 5 mM Mg⁺² for experiments in vivo. The binding buffer consists of tRNA and single stranded DNA that are capable of scavenging Mg⁺² thereby reducing the effective concentration of Mg ions. […]
(§2) Cell Binding Assays. Affinity of each construct was evaluated by incubating Ramos cells (2.5×10⁵) with a series of FITC or Cy3 labeled constructs in a 50 μL of binding buffer on ice for 45 min Cells were then washed with lmL of wash buffer at 4° C. and resuspended in 100 μL of wash buffer. The binding of the constructs was analyzed using flow cytometry by counting 10,000 events for each concentration. […] Binding at respective concentrations and absolute fluorescence intensity difference was used for the binding curves. When calculating the relative binding constant, binding curves were fitted with median fluorescence intensity observed for each histogram and observed Bmax/2 was used as the binding constant. […]

Data set [2] concerns the target T1, membrane-bound IgM (mIgM, …). Put plainly: flow; Bmax/2 on Ramos cells, 4 C, 5 mM MgCl2. How it is done:
as §1, §2

Data set [3] shares this target. Put plainly: flow; Bmax/2 on Ramos cells, 4 C. How it is done:
as §1, §2

T1 sequence (P01871 whole entry, one chain of several): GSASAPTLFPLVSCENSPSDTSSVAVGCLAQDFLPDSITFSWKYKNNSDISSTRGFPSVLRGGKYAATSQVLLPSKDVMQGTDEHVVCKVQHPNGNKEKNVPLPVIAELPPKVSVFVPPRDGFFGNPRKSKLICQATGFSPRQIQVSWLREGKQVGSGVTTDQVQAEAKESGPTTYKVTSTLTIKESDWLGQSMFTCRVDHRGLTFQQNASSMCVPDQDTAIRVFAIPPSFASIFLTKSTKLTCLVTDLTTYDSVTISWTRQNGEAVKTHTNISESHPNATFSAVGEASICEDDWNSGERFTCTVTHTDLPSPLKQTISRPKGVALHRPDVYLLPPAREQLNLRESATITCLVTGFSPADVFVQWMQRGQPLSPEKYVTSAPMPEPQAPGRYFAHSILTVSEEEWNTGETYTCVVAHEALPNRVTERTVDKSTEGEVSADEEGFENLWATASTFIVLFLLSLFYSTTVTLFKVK

The Kd is the equilibrium constant for the complex coming apart. A high value points to lower affinity. For the molecule ACCGTGGAGGATAGTTCGGTGGCTGTTCAGGGTCTCCTCCACGGT (ssDNA) [TD05], in data set [1], the affinity, expressed as Kd, was 359 nM. AGGAGGATAGTTCGGTGGCTGTTCAGGGTCTCCTCCT (ssDNA) [TD05.1] returned a dissociation constant Kd in data set [2] of 53 nM.

On to AGGAGGATAGTTCGGTGGCTGTTCAGGGTCTCCTCCT (ssDNA, LNA at last four nucleotides (3' stem pyrimidines TCCT) [34,35,36,37 (LNA)]) [TD05.17], for which the affinity in data set [3], expressed as Kd, was 43 nM.

On to CGTGGAGGATAGTTCGGTGGCTTCAGGGTCTCCTCCCG (ssDNA) [TD05.7], for which the affinity in data set [2], expressed as Kd, was 148 nM.
